Target: trypsin
Assay: Inhibition constant Ki, steady-state release of p-nitroaniline, trypsin
Format: biochemical
Settings: only inhibitor concentration varied
Description: The determination of the inhibition constants Ki is carried out according to N. Braun et al. [Biol. Chem. Hoppe-Seyler 368, 299-308 (1987)] by measuring the steady-state reaction rate of the release of p-nitroaniline from proteinase-inhibitor substrate mixtures. Only the inhibitor concentration is varied. Since the curve OD405 vs. time was linear, the release of p-nitroaniline is entered at 10 to 20 minutes. Ki can be determined from the various slopes. The proteinases used are human leukocyte elastase (HLE), chymotrypsin and trypsin.

B1: Eglin C (protein, UniProt P01051 1-70, looked up)
Eglin C: TEFGSELKSFPEVVGKTVDQAREYFTLHYPQYDVYFLPEGSPVTLDLRYNRVRVFYNPGTNVVNHVPHVG
  Inhibition constants, trypsin Ki (M): no inhibition
